{"source": "paper PMC2956136", "target": "GST-RanQ69LGTP (UniProt P62826)", "experiment": "SPR", "data": [{"substance": "importin β (from UniProt Q14974 1-876) (natural protein; other documents disagree on this pair)", "values": [{"measurement": "drop in response units with 5 μM Iβ1A against the DMSO control", "result": 70, "unit": "%"}]}]}
